For data set [1], the target named is T1, CjGH5D (Cellvibrio japonicus, UniProt B3PD52).
T1 construct: gene cel5D; GH5_4 catalytic module, lipoprotein signal peptide and serine-rich linker removed; N-terminal His6 (pET28a), E. coli; borders 96-468 are those of the crystal model
As to the kind of experiment: time-dependent inactivation, residual XXXG-CNP hydrolysis at […] nm. The conditions noted are these: covalent; irreversible active-site affinity label; 20 mM phosphate pH 7.5, 40 °C, 0.1 mg/mL BSA; XXXG-CNP substrate. The data set is classed as biochemical.

Substrate in data set [2]: O=[N+]([O-])c1ccc(O[C@@H]2O[C@H](CO)[C@@H](O[C@@H]3O[C@H](CO[C@H]4OC[C@@H](O)[C@H](O)[C@H]4O)[C@@H](O[C@@H]4O[C@H](CO[C@H]5OC[C@@H](O)[C@H](O)[C@H]5O)[C@@H](O[C@@H]5O[C@H](CO[C@H]6OC[C@@H](O)[C@H](O)[C@H]6O)[C@@H](O)[C@H](O)[C@H]5O)[C@H](O)[C@H]4O)[C@H](O)[C@H]3O)[C@H](O)[C@H]2O)c(Cl)c1
As to the kind of experiment: purified protein. The data set is classed as biochemical, Cellvibrio japonicus.

Substrate in data set [3]: O=[N+]([O-])c1ccc(O[C@@H]2O[C@H](CO)[C@@H](O[C@@H]3O[C@H](CO[C@H]4OC[C@@H](O)[C@H](O)[C@H]4O[C@@H]4O[C@H](CO)[C@H](O)[C@H](O)[C@H]4O)[C@@H](O[C@@H]4O[C@H](CO[C@H]5OC[C@@H](O)[C@H](O)[C@H]5O[C@@H]5O[C@H](CO)[C@H](O)[C@H](O)[C@H]5O)[C@@H](O[C@@H]5O[C@H](CO[C@H]6OC[C@@H](O)[C@H](O)[C@H]6O)[C@@H](O)[C@H](O)[C@H]5O)[C@H](O)[C@H]4O)[C@H](O)[C@H]3O)[C@H](O)[C@H]2O)c(Cl)c1
As to the kind of experiment: purified protein. The data set is classed as biochemical, Cellvibrio japonicus.

Substrate in data set [4]: O=[N+]([O-])c1ccc(O[C@@H]2O[C@H](CO)[C@@H](O[C@@H]3O[C@H](CO)[C@@H](O[C@@H]4O[C@H](CO)[C@@H](O[C@@H]5O[C@H](CO)[C@@H](O)[C@H](O)[C@H]5O)[C@H](O)[C@H]4O)[C@H](O)[C@H]3O)[C@H](O)[C@H]2O)c(Cl)c1
As to the kind of experiment: purified protein. The conditions noted are these: 50 mM phosphate pH 7.5, 55 °C. The data set is classed as biochemical, Cellvibrio japonicus.

Substrate in data set [5]: O=[N+]([O-])c1ccc(O[C@@H]2O[C@H](CO)[C@@H](O[C@@H]3O[C@H](CO)[C@@H](O[C@@H]4O[C@H](CO)[C@@H](O)[C@H](O)[C@H]4O)[C@H](O)[C@H]3O)[C@H](O)[C@H]2O)c(Cl)c1
As to the kind of experiment: purified protein. The conditions noted are these: 50 mM phosphate pH 7.5, 55 °C. The data set is classed as biochemical, Cellvibrio japonicus.

Here are results for four molecules from article PMC5816542, “In vitro and in vivo characterization of three Cellvibrio japonicus glycoside hydrolase family 5 members reveals potent xyloglucan backbone-cleaving functions” (Biotechnology for Biofuels, 2018).

Usually Km stands for the substrate concentration at which the rate is half of its maximum. Usually kcat stands for the number of substrate molecules converted per active site and unit of time at saturation. One may read the kcat/Km as the turnover number divided by the Michaelis constant.

Turning to `O=C(CBr)N[C@@H]1O[C@H](CO)[C@@H](O[C@@H]2O[C@H](CO[C@H]3OC[C@@H](O)[C@H](O)[C@H]3O)[C@@H](O[C@@H]3O[C@H](CO[C@H]4OC[C@@H](O)[C@H](O)[C@H]4O)[C@@H](O[C@@H]4O[C@H](CO[C@H]5OC[C@@H](O)[C@H](O)[C@H]5O)[C@@H](O)[C@H](O)[C@H]4O)[C@H](O)[C@H]3O)[C@H](O)[C@H]2O)[C@H](O)[C@H]1O` [XXXG-NHCOCH2Br], the KI (inactivation) in data set [1] turned out to be 1780 ± 170 µM.

B1: CjGH5F (Cellvibrio japonicus Ueda107) (protein)
chain: FSVTVGGSSSGTMRNLTSVQLARLMGAGWNLGNSLEAIGSETAWGNPATTQALINAVKAAGFKTIRIPVSWSQYADANYNISSSWMARVKQVVDYAKNAGFYVIINIHWDGGWMQPTYANQAAVNSRLTKLWTQIANNFKNYDDYLLFAGTNEVMVDGDYGTPTYEYYTVQNSFNQTFVNTVRATGGNNAVRHLVVQGFNTNIDHTISFVSIPSDSASNRLMMEVHYYDPYNFTLNASSNIWQWGANATNSSATETWANETYVNTQFQRMKTRFIDNGVAVILGEFGAISRTNIPGAESYRTYWNQYITRAAYTRGLVPIYWDNGYTANNGMGLFDRYNGAQVYPNLISTIINAAQ
notes: C-terminal GH5_4 catalytic module, signal peptide and FN3 domain removed; N-terminal His6 (pET28a), E. coli
Regarding B1, in data set [2] (50 mM phosphate pH 7.0, 50 °C), the Km worked out at 70 ± 10 µM, the kcat worked out at 2.82 ± 0.0667 s⁻¹ and the kcat/Km came out at 40200 ± 5830 M⁻¹ s⁻¹. In data set [3] (50 mM phosphate pH 7.0, 50 °C), the Km was found to be 30 ± 2 µM, the turnover number (kcat) was 6.55 ± 0.133 s⁻¹ and the kcat/Km amounted to 218000 ± 15000 M⁻¹ s⁻¹.

B2: CjGH5D (Cellvibrio japonicus Ueda107) (protein)
chain: GLYPSYNTSPAAPDSTGMQSTAVQLAGKIRLGWNIGNTMEAIGGETAWGNPMVSNELLKLVKDSGFDAVRIPVAWDQYANQESAEISAAWLNRVKQVVQMAIDNELYVLINIHWDGGWLENNITPAKKDENNAKQKAFWEQIATHLRDFDEHLLFAGTNEPNAENAEQMDVLNSYLQTFVDAVRSTGGKNAYRVLVLQGPVTDIEKTNELWTHMPADTATDRLMAEVHFYTPYNFALMRQDESWGKQFYYWGEGFLSTTDTERNPTWGEEATIDQLFDLMKTKFVDQGIPVVLGEFSAMRRTNLTGDALTLHLAGRAYYHKYVTQQALARGLLPFYWDNGGNDNFSSGIFNRQQNTVFDQQVLDALLEGAGAQ
notes: GH5_4 catalytic module, lipoprotein signal peptide and serine-rich linker removed; N-terminal His6 (pET28a), E. coli; borders 96-468 are those of the crystal model
On to B2, for which, in data set [2] (50 mM phosphate pH 7.5, 50 °C), the Km came to 810 ± 100 µM, the kcat came to 4.68 ± 0.2 s⁻¹ and the kcat/Km is 5780 ± 750 M⁻¹ s⁻¹. In data set [3] (50 mM phosphate pH 7.5, 50 °C), the Km came out at 180 ± 20 µM, the catalytic constant (kcat) was 2.7 ± 0.0667 s⁻¹ and the kcat/Km is 15000 ± 1720 M⁻¹ s⁻¹.

B3: CjGH5E (Cellvibrio japonicus Ueda107) (protein)
chain: SSSGSSLTSVELTRLMGVGWNVGNTLDAIGGETNWGNPLITQQLISSVKAAGFKTLRVPVAWSKFTNAATFTIDPAWLNRVEQVVNYALNEDMYVMINIHWDGGWMQPTYAQQAYVNNRLSIMWTQIANHFRNYGDKLLFAGTNEVMVEGDYGTPTVEYYTVQNSFNQTFVDTVRATGGNNANRFLVVQGFNTNIDHTVNFARIPTDSASNRLLMEVHYYDPYNFTLNTSSNITQWGAIATNPAVTETWANEAYADAQFEKMRTNFINRGVGVILGEYGVVSRLNVSGHETFRVYYNQYITKSAYQRGLVPVYWDNGYSGDGGFALFDRNSGNQLYPDIIRAIVNATF
notes: GH5_4 catalytic module, signal peptide and CBM2-CBM10 removed; N-terminal His6 (pMCSG53), E. coli
Take B3: the Km in data set [4] was 5020 ± 350 µM; in data set [2] (50 mM phosphate pH 7.5, 55 °C), 10 ± 1 µM; in data set [5] it was 11800 ± 600 µM; in data set [3] (50 mM phosphate pH 7.5, 55 °C), 10 ± 1 µM. In addition, the catalytic constant (kcat) in data set [4] was 3 ± 0.117 s⁻¹; in data set [2] (50 mM phosphate pH 7.5, 55 °C) it was 4.23 ± 0.0667 s⁻¹; in data set [5] it was 3.18 ± 0.117 s⁻¹; in data set [3] (50 mM phosphate pH 7.5, 55 °C), 5.53 ± 0.15 s⁻¹. The kcat/Km in data set [4] worked out at 598 ± 46.7 M⁻¹ s⁻¹; in data set [2] (50 mM phosphate pH 7.5, 55 °C) it was 423000 ± 43300 M⁻¹ s⁻¹; in data set [5], 270 ± 16.7 M⁻¹ s⁻¹; in data set [3] (50 mM phosphate pH 7.5, 55 °C) it was 553000 ± 56700 M⁻¹ s⁻¹.
